Strand notation (5' to 3'): a small letter for the sugar, then the base; units joined by * are phosphorothioate-linked, units joined directly phosphodiester-linked; [ ] holds rarer units or linkages, { } end groups; capitals alone tell only the bases. m = 2'-O-methyl; r = 2'-OH (RNA)
How the values were obtained:
TTR [1] = experiment: TTR editing in primary human hepatocytes treated with LNP formulated Spy Cas9 mRNA (SEQ ID NO: 2) and sgRNAs (Table 16); type: cell-based; conditions: LNP formulated Spy Cas9 mRNA (SEQ ID NO: 2) and sgRNA, 72 hours
Description: (§1) Primary liver hepatocytes. Primary human liver hepatocytes (PHH) and primary cynomolgus liver hepatocytes (PCH) (Gibco) were cultured per the manufacturer's protocol (Invitrogen, protocol 11.28.2012). In brief, the cells were thawed and resuspended in hepatocyte thawing medium with supplements (Gibco, Cat. CM7000) followed by centrifugation at 100 g for 10 minutes for human and 80 g for 4 minutes for cyno. The supernatant was discarded and the pelleted cells resuspended in hepatocyte plating medium plus supplement pack (Invitrogen, Cat. A1217601 and CM3000). Cells were counted and plated on Bio-coat collagen I coated 96-well plates (ThermoFisher, Cat. 877272) at a density of 33,000 cells/well for human or 60,000 cells/well for cyno (or 65,000 cells/well when assaying effects on TTR protein, described further below). Plated cells were allowed to settle and adhere for 6 or 24 hours in a tissue culture incubator at 37° C. and 5% CO2 atmosphere. After incubation cells were checked for monolayer formation and media was replaced with hepatocyte culture medium with serum-free supplement pack (Invitrogen, Cat. A1217601 and CM4000).
In general, the lipid nanoparticle components were dissolved in 100% ethanol with the lipid component of various molar ratios. The RNA cargos were dissolved in 25 mM citrate, 100 mM NaCl, pH 5.0, resulting in a concentration of RNA cargo of approximately 0.45 mg/mL. The LNPs were formulated with a lipid amine to RNA phosphate (N:P) molar ratio of about 4.5 or about 6, with the ratio of mRNA to gRNA at 1:1 by weight.
The LNPs were formed by microfluidic mixing of the lipid and RNA solutions using a Precision Nanosystems NanoAssemblr™ Benchtop Instrument, according to the manufacturer's protocol. A 2:1 ratio of aqueous to organic solvent was maintained during mixing using differential flow rates. After mixing, the LNPs were collected, diluted in water (approximately 1:1 v/v), held for 1 hour at room temperature, and further diluted with water (approximately 1:1 v/v) before final buffer exchange. The final buffer exchange into 50 mM Tris, 45 mM NaCl, 5% (w/v) sucrose, pH 7.5 (TSS) was completed with PD-10 desalting columns (GE). If required, formulations were concentrated by centrifugation with Amicon 100 kDa centrifugal filters (Millipore). The resulting mixture was then filtered using a 0.2 μm sterile filter. The final LNP was stored at −80° C. until further use.
(§2) To quantitatively determine the efficiency of editing at the target location in the genome, sequencing was utilized to identify the presence of insertions and deletions introduced by gene editing.
(§3) Primers were designed around the target site within the gene of interest (e.g. TTR), and the genomic area of interest was amplified.
(§4) Additional PCR was performed per the manufacturer's protocols (Illumina) to add chemistry for sequencing. The amplicons were sequenced on an Illumina MiSeq instrument. The reads were aligned to a reference genome (e.g., the human reference genome (hg38), the cynomologus reference genome (mf5), the rat reference genome (rn6), or the mouse reference genome (mm10)) after eliminating those having low quality scores. The resulting files containing the reads were mapped to the reference genome (BAM files), where reads that overlapped the target region of interest were selected and the number of wild type reads versus the number of reads which contain an insertion, substitution, or deletion was calculated.
(§5) The editing percentage (e.g., the “editing efficiency” or “percent editing” or “indel frequency”) is defined as the total number of sequence reads with insertions/deletions (“indels”) or substitutions over the total number of sequence reads, including wild type.
Lipid nanoparticle formulations of modified sgRNAs targeting human TTR and the cyno matched sgRNA sequences were tested on primary human hepatocytes and primary cyno hepatocytes in a dose response curve. Primary human and cyno hepatocytes were plated as described in Example 1. […]

TTR [2] = experiment: TTR editing in primary human hepatocytes transfected with Spy Cas9 mRNA and sgRNAs (Table 13); type: cell-based; conditions: primary human hepatocytes co-transfected with Spy Cas9 mRNA (SEQ ID NO:2) and sgRNAs, 12.5 nM
Description: as §1
Lipofectamine RNAiMax (ThermoFisher, Cat. 13778150) based transfections were conducted as per the manufacturer's protocol. Cells were sequentially transfected with a lipoplex containing Spy Cas9 mRNA (100 ng), Lipofectamine RNAiMax (0.4 […]) and tracer RNA ([…]), Lipofectamine RNAiMax (0.4 μL/well) and OptiMem.
Transfected cells were harvested post-transfection at 24, 48, or 72 hours. The genomic DNA was extracted from each well of a 96-well plate using 50 μL/well BuccalAmp DNA Extraction solution (Epicentre, Cat. QE09050) per manufacturer's protocol. All DNA samples were subjected to PCR and subsequent NGS analyses, as described herein.
as §2, §3, §4, §5
Guides in modified sgRNA format targeting human and/or cyno TTR were delivered to primary human hepatocytes and primary cyno hepatocytes as described in Example 1. Percent editing was determined for crRNAs comprising each guide sequence across each cell type and the guide sequences were then rank ordered based on highest % edit. The screening data for the guide sequences in Table 2 in both cell lines are listed below (Table 12 through 15).

B1: G000496: TTR sgRNA modified sequence, Human, SEQ ID No. 103; guide sequence of CR005304 (nucleic acid)
guide: mG*mG*mC*rCrGrUrGrCrArUrGrUrGrUrUrCrArGrArArGrUrUrUrUrArGrAmGmCmUmAmGmAmAmAmUmAmGmCrArArGrUrUrArArArArUrArArGrGrCrUrArGrUrCrCrGrUrUrArUrCrAmAmCmUmUmGmAmAmAmAmAmGmUmGmGmCmAmCmCmGmAmGmUmCmGmGmUmGmCmU*mU*mU*mU
TTR [1]
  12.5 ng mRNA, 3.9 nM sgRNA Avg % Edit: 30.73%
TTR [2]
  Avg % Deletion: 52.25%
  Avg % Edit: 63.30%
  Avg % Insert: 11.08%

B2: G000495: TTR sgRNA modified sequence, Human, SEQ ID No. 102; guide sequence of CR003343 (nucleic acid)
guide: mC*mA*mG*rArGrGrArCrArCrUrUrGrGrArUrUrCrArCrGrUrUrUrUrArGrAmGmCmUmAmGmAmAmAmUmAmGmCrArArGrUrUrArArArArUrArArGrGrCrUrArGrUrCrCrGrUrUrArUrCrAmAmCmUmUmGmAmAmAmAmAmGmUmGmGmCmAmCmCmGmAmGmUmCmGmGmUmGmCmU*mU*mU*mU
TTR [1]
  12.5 ng mRNA, 3.9 nM sgRNA Avg % Edit: 23.97%
TTR [2]
  Avg % Deletion: 4.45%
  Avg % Edit: 47.77%
  Avg % Insert: 43.40%

B3: G000498: TTR sgRNA modified sequence, Human, SEQ ID No. 105; guide sequence of CR003359 (nucleic acid)
guide: mA*mG*mU*rGrArGrUrCrUrGrGrArGrArGrCrUrGrCrArGrUrUrUrUrArGrAmGmCmUmAmGmAmAmAmUmAmGmCrArArGrUrUrArArArArUrArArGrGrCrUrArGrUrCrCrGrUrUrArUrCrAmAmCmUmUmGmAmAmAmAmAmGmUmGmGmCmAmCmCmGmAmGmUmCmGmGmUmGmCmU*mU*mU*mU
TTR [1]
  12.5 ng mRNA, 3.9 nM sgRNA Avg % Edit: 24.43%
TTR [2]
  Avg % Deletion: 14.90%
  Avg % Edit: 60.02%
  Avg % Insert: 45.20%

B4: G000491: TTR sgRNA modified sequence, Human, SEQ ID No. 98; guide sequence of CR003338 (nucleic acid)
guide: mA*mU*mA*rCrCrArGrUrCrCrArGrCrArArGrGrCrArGrGrUrUrUrUrArGrAmGmCmUmAmGmAmAmAmUmAmGmCrArArGrUrUrArArArArUrArArGrGrCrUrArGrUrCrCrGrUrUrArUrCrAmAmCmUmUmGmAmAmAmAmAmGmUmGmGmCmAmCmCmGmAmGmUmCmGmGmUmGmCmU*mU*mU*mU
TTR [1]
  12.5 ng mRNA, 3.9 nM sgRNA Avg % Edit: 31.60%
TTR [2]
  Avg % Deletion: 3.60%
  Avg % Edit: 45.93%
  Avg % Insert: 42.42%

B5: G000497: TTR sgRNA modified sequence, Human, SEQ ID No. 104; guide sequence of CR003335 (nucleic acid)
guide: mC*mU*mG*rCrUrCrCrUrCrCrUrCrUrGrCrCrUrUrGrCrGrUrUrUrUrArGrAmGmCmUmAmGmAmAmAmUmAmGmCrArArGrUrUrArArArArUrArArGrGrCrUrArGrUrCrCrGrUrUrArUrCrAmAmCmUmUmGmAmAmAmAmAmGmUmGmGmCmAmCmCmGmAmGmUmCmGmGmUmGmCmU*mU*mU*mU
TTR [1]
  12.5 ng mRNA, 3.9 nM sgRNA Avg % Edit: 15.10%
TTR [2]
  Avg % Deletion: 5.85%
  Avg % Edit: 40.33%
  Avg % Insert: 34.48%

B6: G000484: TTR sgRNA modified sequence, Human, SEQ ID No. 91; guide sequence of CR003367 (nucleic acid)
guide: mA*mG*mA*rCrArCrCrArArArUrCrUrUrArCrUrGrGrArGrUrUrUrUrArGrAmGmCmUmAmGmAmAmAmUmAmGmCrArArGrUrUrArArArArUrArArGrGrCrUrArGrUrCrCrGrUrUrArUrCrAmAmCmUmUmGmAmAmAmAmAmGmUmGmGmCmAmCmCmGmAmGmUmCmGmGmUmGmCmU*mU*mU*mU
TTR [1]
  12.5 ng mRNA, 3.9 nM sgRNA Avg % Edit: 16.67%
TTR [2]
  Avg % Deletion: 29.48%
  Avg % Edit: 43.37%
  Avg % Insert: 13.98%

B7: G000500: TTR sgRNA modified sequence, Human, SEQ ID No. 107; guide sequence of CR003337 (nucleic acid)
guide: mC*mC*mA*rGrUrCrCrArGrCrArArGrGrCrArGrArGrGrGrUrUrUrUrArGrAmGmCmUmAmGmAmAmAmUmAmGmCrArArGrUrUrArArArArUrArArGrGrCrUrArGrUrCrCrGrUrUrArUrCrAmAmCmUmUmGmAmAmAmAmAmGmUmGmGmCmAmCmCmGmAmGmUmCmGmGmUmGmCmU*mU*mU*mU
TTR [1]
  12.5 ng mRNA, 3.9 nM sgRNA Avg % Edit: 23.57%
TTR [2]
  Avg % Deletion: 3.10%
  Avg % Edit: 35.50%
  Avg % Insert: 32.47%

B8: G000493: TTR sgRNA modified sequence, Human, SEQ ID No. 100; guide sequence of CR003368 (nucleic acid)
guide: mA*mA*mG*rUrGrCrCrUrUrCrCrArGrUrArArGrArUrUrGrUrUrUrUrArGrAmGmCmUmAmGmAmAmAmUmAmGmCrArArGrUrUrArArArArUrArArGrGrCrUrArGrUrCrCrGrUrUrArUrCrAmAmCmUmUmGmAmAmAmAmAmGmUmGmGmCmAmCmCmGmAmGmUmCmGmGmUmGmCmU*mU*mU*mU
TTR [1]
  12.5 ng mRNA, 3.9 nM sgRNA Avg % Edit: 7.33%
TTR [2]
  Avg % Deletion: 0.97%
  Avg % Edit: 11.55%
  Avg % Insert: 10.65%

B9: G000487: TTR sgRNA modified sequence, Human, SEQ ID No. 94; guide sequence of CR003357 (nucleic acid)
guide: mU*mU*mC*rUrUrUrGrGrCrArArCrUrUrArCrCrCrArGrGrUrUrUrUrArGrAmGmCmUmAmGmAmAmAmUmAmGmCrArArGrUrUrArArArArUrArArGrGrCrUrArGrUrCrCrGrUrUrArUrCrAmAmCmUmUmGmAmAmAmAmAmGmUmGmGmCmAmCmCmGmAmGmUmCmGmGmUmGmCmU*mU*mU*mU
TTR [1]
  12.5 ng mRNA, 3.9 nM sgRNA Avg % Edit: 17.37%
TTR [2]
  Avg % Deletion: 2.27%
  Avg % Edit: 49.57%
  Avg % Insert: 47.38%

B10: G000485: TTR sgRNA modified sequence, Human, SEQ ID No. 92; guide sequence of CR003336 (nucleic acid)
guide: mC*mC*mU*rCrCrUrCrUrGrCrCrUrUrGrCrUrGrGrArCrGrUrUrUrUrArGrAmGmCmUmAmGmAmAmAmUmAmGmCrArArGrUrUrArArArArUrArArGrGrCrUrArGrUrCrCrGrUrUrArUrCrAmAmCmUmUmGmAmAmAmAmAmGmUmGmGmCmAmCmCmGmAmGmUmCmGmGmUmGmCmU*mU*mU*mU
TTR [1]
  12.5 ng mRNA, 3.9 nM sgRNA Avg % Edit: 14.23%
TTR [2]
  Avg % Deletion: 1.97%
  Avg % Edit: 30.82%
  Avg % Insert: 28.87%

B11: G000490: TTR sgRNA modified sequence, Human, SEQ ID No. 97; guide sequence of CR003366 (nucleic acid)
guide: mA*mA*mA*rUrArGrArCrArCrCrArArArUrCrUrUrArCrGrUrUrUrUrArGrAmGmCmUmAmGmAmAmAmUmAmGmCrArArGrUrUrArArArArUrArArGrGrCrUrArGrUrCrCrGrUrUrArUrCrAmAmCmUmUmGmAmAmAmAmAmGmUmGmGmCmAmCmCmGmAmGmUmCmGmGmUmGmCmU*mU*mU*mU
TTR [1]
  12.5 ng mRNA, 3.9 nM sgRNA Avg % Edit: 10.53%
TTR [2]
  Avg % Deletion: 5.38%
  Avg % Edit: 24.72%
  Avg % Insert: 19.38%

B12: G000492: TTR sgRNA modified sequence, Human, SEQ ID No. 99; guide sequence of CR003342 (nucleic acid)
guide: mC*mU*mU*rCrUrCrUrArCrArCrCrCrArGrGrGrCrArCrGrUrUrUrUrArGrAmGmCmUmAmGmAmAmAmUmAmGmCrArArGrUrUrArArArArUrArArGrGrCrUrArGrUrCrCrGrUrUrArUrCrAmAmCmUmUmGmAmAmAmAmAmGmUmGmGmCmAmCmCmGmAmGmUmCmGmGmUmGmCmU*mU*mU*mU
TTR [1]
  12.5 ng mRNA, 3.9 nM sgRNA Avg % Edit: 15.87%
TTR [2]
  Avg % Deletion: 2.22%
  Avg % Edit: 34.65%
  Avg % Insert: 32.45%
